Source: US20040053822A1

The substances below were run against HLA-A*0301 (human) (assay: competition vs 125I standard peptide, purified HLA-A*0301). Conditions: not given.

Substance | relative binding ratio (ratio to standard peptide)
MAGE3 peptide, position 115, 9 amino acids | 0.0045
MAGE3 peptide, position 267, 10 amino acids | 0.0032

Other lines, results leading:

relative binding ratio (ratio to standard peptide) | Substance
0.0066 | MAGE3 peptide, position 115, 10 amino acids
0.0016 | MAGE3 peptide, position 118, 9 amino acids
0.0014 | MAGE3 peptide, position 118, 10 amino acids

Each substance was assayed against HLA-A2401 (human) (assay: inhibition of 125I probe peptide binding to purified HLA). Conditions: not given.

Substance | relative binding ratio (IC50 standard/IC50 peptide)
MAGE3 peptide, position 97, 9 amino acids | 0.0049
MAGE3 peptide, position 270, 9 amino acids | 0.0006
MAGE3 peptide, position 150, 11 amino acids | 0.091
MAGE3 peptide, position 268, 11 amino acids | 0.0004

Further lines, results first:

relative binding ratio (IC50 standard/IC50 peptide) | Substance
0.05 | MAGE3 peptide, position 195, 10 amino acids
0.53 | MAGE3 peptide, position 142, 9 amino acids
0.042 | MAGE3 peptide, position 300, 8 amino acids
0.42 | MAGE3 peptide, position 195, 9 amino acids
0.59 | MAGE3 peptide, position 300, 10 amino acids
0.026 | MAGE3 peptide, position 221, 11 amino acids

What follows are substances tested against HLA-A*2401 (human) (assay: inhibition of 125I-labelled standard peptide binding to purified HLA). Conditions: not given.

Substance | relative binding ratio (IC50 standard peptide / IC50 test peptide)
MAGE3 195-204 (position 195, 10 amino acids) (peptide) | 0.05
MAGE3 142-150 (position 142, 9 amino acids) (peptide) | 0.53
MAGE3 221-231 (position 221, 11 amino acids) (peptide) | 0.026

Now from value to substance:

relative binding ratio (IC50 standard peptide / IC50 test peptide) | Substance
0.0049 | MAGE3 97-105 (position 97, 9 amino acids) (peptide)
0.42 | MAGE3 195-203 (position 195, 9 amino acids) (peptide)
0.59 | MAGE3 300-309 (position 300, 10 amino acids) (peptide)
0.091 | MAGE3 150-160 (position 150, 11 amino acids) (peptide)
0.042 | MAGE3 300-307 (position 300, 8 amino acids) (peptide)

These substances were tested against HLA-A*6802 (human) (assay: competition with 125I probe peptide, purified HLA, gel filtration). Conditions: scale: ratio.

relative binding ratio | Substance
0.0012 | MAGE3 peptide, position 220, 9 amino acids

The substances below were run against HLA-A*0301 (human) (assay: 125I-probe competition, purified HLA). Conditions: not given.

relative binding ratio | Substance
0.0045 | MAGE2 and MAGE3 peptide, position 115, 9 amino acids

What follows are substances tested against HLA-A*0203 (human) (assay: competition with 125I probe peptide, purified HLA). Conditions: not given.

IC50 [nM] | Substance
769 | MAGE3.174 11-mer … (peptide)

The substances below were run against HLA-A*0301 (human) (assay: competition with 125I probe peptide, purified HLA). Conditions: not given.

IC50 [nM] | Substance
1000 | MAGE2.71 11-mer … (peptide)

What follows are substances tested against HLA-A*6802 (human) (assay: competition with 125I probe peptide, purified HLA). Conditions: not given.

IC50 [nM] | Substance
7690 | MAGE2.112 11-mer … (peptide)
4490 | MAGE3.174 11-mer … (peptide)
